Source: patent publication US20040197809A1
Several values for one entry are separate records, joined by “and”; a condition that tells them apart may be missing. Equal values may be shown once.

Assays:
[1] = target: Fcγ receptor (determined with U937 cells) (Homo sapiens (Human)) (UniProt P12314); test: binding to Fcγ receptor on U937 cells, method of Anderson et al., J. Immunol. 125:2735-2741 (1980)
[2] = target: gp120, the major envelope glycoprotein of HIV-I (HIV-1); test: gp120 binding by the method of Smith et al., Science 238:1704-07 (1987)
[3] = target: HIV-1 strain HTLV-IIIB (virus) (HIV-1 strain HTLV-IIIB); test: cell-based or functional assay
[4] = target: gp120, the major envelope glycoprotein of HIV-I (HIV-1); test: saturation binding of 125I-gp120 in solution, immunoprecipitation with OKT4, Scatchard analysis

UniProt P12314, sequence (P12314 16-374 limits assumed, form in doubt): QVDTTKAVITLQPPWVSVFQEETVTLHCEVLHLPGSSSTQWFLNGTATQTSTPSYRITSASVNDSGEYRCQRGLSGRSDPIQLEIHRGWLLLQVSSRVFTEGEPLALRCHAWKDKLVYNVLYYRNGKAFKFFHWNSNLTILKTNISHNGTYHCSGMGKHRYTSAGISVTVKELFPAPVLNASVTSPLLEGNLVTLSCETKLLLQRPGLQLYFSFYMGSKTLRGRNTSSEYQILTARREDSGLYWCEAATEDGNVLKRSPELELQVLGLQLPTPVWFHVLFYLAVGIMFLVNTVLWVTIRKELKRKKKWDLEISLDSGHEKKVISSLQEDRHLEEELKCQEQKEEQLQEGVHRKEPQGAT

Substance | Kd [1] [nM] | Kd [2] [nM] | Indirect immunofluorescence (% positive cells), inhibitor supernatant 1:4 (% positive cells) [3] | Reverse transcriptase (cpm/ml × 10^5), inhibitor supernatant 1:4 [3] | Reverse transcriptase (cpm/ml × 10^5), inhibitor supernatant undil. [3] | Kd [4] [nM] | Indirect immunofluorescence (% positive cells), inhibitor supernatant undil. (% positive cells) [3]
bulk human IgG1 (antibody) | 3.52 |  |  |  |  |  | 
CD44γ1 immunoadheson (CD4 to serine residue 366 fused to the constant region of human immunoglobulin γ1) (Fc fusion) | 2.83 | 1.2 |  |  |  |  | 
gDCD4T (signal peptide and first 27 residues of mature HSV type I gD glycoprotein fused to mature CD4T) (receptor) |  |  | 26.8 and 36.1 | 992000 cpm/ml and 1.13e+06 cpm/ml | 14000 cpm/ml and 23000 cpm/ml | 0.72 | 
CD42γ1 immunoadheson (CD4 to glutamine residue 180 fused to the constant region of human immunoglobulin γ1) (Fc fusion) | 3.01 | 1.4 |  |  |  |  | 
CD4T (CD4 fused after residue 368 of mature CD4 to 9 residues coded by pBR322 sequence) (from UniProt P01730 27-393) (receptor) |  |  | 18 and 16.1 | 372000 cpm/ml and 594000 cpm/ml | 11000 cpm/ml and 15000 cpm/ml | 0.83 | 0.4 and 0.8
